# Results as given in the supplement of paper PMC11246515.
# ± gives the standard deviation of the averaged measurements.
# Assay: total protein half-life in vivo (active degradation + dilution); higher = more stable protein
# [1] = E. coli NCM3722 delta-clpP delta-lon delta-hslV, growth: N-lim chemostat, doubling time 6 h
# [2] = E. coli NCM3722 delta-hslV, growth: N-lim chemostat, doubling time 6 h
# [3] = E. coli NCM3722 delta-lon, growth: N-lim chemostat, doubling time 6 h
# [4] = E. coli NCM3722 delta-smpB, growth: N-lim chemostat, doubling time 6 h
# [5] = wild type E. coli NCM3722, growth: C-lim chemostat, doubling time 6 h
# [6] = wild type E. coli NCM3722, growth: C-lim chemostat, doubling time 12 h
# [7] = wild type E. coli NCM3722, growth: N-lim chemostat, doubling time 6 h
# [8] = wild type E. coli NCM3722, growth: P-lim chemostat, doubling time 6 h
# [9] = wild type E. coli NCM3722, growth: P-lim chemostat, doubling time 12 h
# [10] = E. coli NCM3722 delta-clpP, growth: N-lim chemostat, doubling time 6 h
# [11] = wild type E. coli NCM3722, growth: N-lim chemostat, doubling time 12 h
# [12] = wild type E. coli NCM3722, growth: C-lim chemostat, doubling time 3 h
Sequence,total protein half-life in vivo [1],total protein half-life in vivo [2],total protein half-life in vivo [3],total protein half-life in vivo [4],total protein half-life in vivo [5],total protein half-life in vivo [6],total protein half-life in vivo [7],total protein half-life in vivo [8],total protein half-life in vivo [9],total protein half-life in vivo [10],total protein half-life in vivo [11],total protein half-life in vivo [12]
MSIYKIPLPLNILEAARERITWTLNTLPRVCVSFSGGKDSGLMLHLTAELARQMGKKICVLFIDWEAQFSCTINYVQSLRELYTDVIEEFYWVALPLTTQNSLSQYQPEWQCWEPDVEWVRQPPQDAITDPDFFCFYQPGMTFEQFVREFAEWFSQKRPAAMMIGIRADESYNRFVAIASLNKQRFADDKPWTTAAPGGHSWYIYPIYDWKVADIWTWYANHQSLCNPLYNLMYQAGVPLRHMRICEPFGPEQRQGLWLYHVIEPDRWAAMCARVSGVKSGGIYAGHDNHFYGHRKILKPEHLDWQEYALLLLNSMPEKTAEHYRNKIAIYLHWYQKKGIEVPQTQQGDIGAKDIPSWRRICKVLLNNDYWCRALSFSPTKSKNYQRYNERIKGKRQEWGILCNND,5.55 h,6.21 h,4.82 h,,,,,,,,,
MAYQSQDIIRRSATNGLTPAPQARDFQEEVAKLIDVTTCIGCKACQVACSEWNDIRDTVGNNIGVYDNPNDLSAKSWTVMRFSEVEQNDKLEWLIRKDGCMHCSDPGCLKACPAEGAIIQYANGIVDFQSEQCIGCGYCIAGCPFDIPRLNPEDNRVYKCTLCVDRVVVGQEPACVKTCPTGAIHFGTKESMKTLASERVAELKTRGYDNAGLYDPAGVGGTHVMYVLHHADKPNLYHGLPENPEISETVKFWKGIWKPLAAVGFAATFAASIFHYVGVGPNRADEEENNLHEEKDEERK [P0AAJ5],4.44 ± 0.47 h,3.37 h,,3.15 h,6.15 h,7.88 h,5.98 ± 0.62 h,5.29 h,,,,
MKTSDNERIKYEITGQAVLQILRMKINFSLQTLIKQLLVMKSAEEDAFRRDLIDSIIRDFSNSDSGGPNRRTATADNKSMFNGKKINRIH,,,,,,,,,3.79 h,,,
MKSTSDLFNEIIPLGRLIHMVNQKKDRLLNEYLSPLDITAAQFKVLCSIRCAACITPVELKKVLSVDLGALTRMLDRLVCKGWVERLPNPNDKRGVLVKLTTGGAAICEQCHQLVGQDLHQELTKNLTADEVATLEYLLKKVLP,4.66 ± 0.39 h,> 8 h,,4.66 ± 0.12 h,5.68 ± 0.62 h,11.7 ± 2.1 h,4.4 ± 0.066 h,3.68 h,10.8 h,6.71 h,7.75 ± 0.37 h,
MADILLLDNIDSFTYNLADQLRSNGHNVVIYRNHIPAQTLIERLATMSNPVLMLSPGPGVPSEAGCMPELLTRLRGKLPIIGICLGHQAIVEAYGGYVGQAGEILHGKASSIEHDGQAMFAGLTNPLPVARYHSLVGSNIPAGLTINAHFNGMVMAVRHDADRVCGFQFHPESILTTQGARLLEQTLAWAQQKLEPANTLQPILEKLYQAQTLSQQESHQLFSAVVRGELKPEQLAAALVSMKIRGEHPNEIAGAATALLENAAPFPRPDYLFADIVGTGGDGSNSINISTASAFVAAACGLKVAKHGNRSVSSKSGSSDLLAAFGINLDMNADKSRQALDELGVCFLFAPKYHTGFRHAMPVRQQLKTRTLFNVLGPLINPAHPPLALIGVYSPELVLPIAETLRVLGYQRAAVVHSGGMDEVSLHAPTIVAELHDGEIKSYQLTAEDFGLTPYHQEQLAGGTPEENRDILTRLLQGKGDAAHEAAVAANVAMLMRLHGHEDLQANAQTVLEVLRSGSAYDRVTALAARG,3.96 ± 0.42 h,2.96 ± 0.18 h,3.02 ± 0.12 h,2.769 ± 0.019 h,4.79 ± 0.1 h,10.4 ± 1.9 h,3.01 ± 0.27 h,6.54 ± 1.6 h,12.2 ± 3.9 h,3.018 ± 0.0036 h,3.72 ± 0.29 h,3.23 ± 0.33 h
MQAIPMTLRGAEKLREELDFLKSVRRPEIIAAIAEAREHGDLKENAEYHAAREQQGFCEGRIKDIEAKLSNAQVIDVTKMPNNGRVIFGATVTVLNLDSDEEQTYRIVGDDEADFKQNLISVNSPIARGLIGKEEDDVVVIKTPGGEVEFEVIKVEYL [P0A6W5],5.3 ± 0.11 h,3.21 ± 0.12 h,3.76 ± 0.18 h,2.44 ± 0.26 h,4.48 ± 0.2 h,6.41 ± 0.17 h,3.27 ± 0.066 h,3.75 ± 0.55 h,6.8 ± 0.8 h,4.38 ± 0.77 h,4.46 ± 0.28 h,2.57 ± 0.24 h
MNELDGIKQFTTVVADSGDIESIRHYHPQDATTNPSLLLKAAGLSQYEHLIDDAIAWGKKNGKTQEQQVVAACDKLAVNFGAEILKIVPGRVSTEVDARLSFDKEKSIEKARHLVDLYQQQGVEKSRILIKLASTWEGIRAAEELEKEGINCNLTLLFSFAQARACAEAGVFLISPFVGRIYDWYQARKPMDPYVVEEDPGVKSVRNIYDYYKQHHYETIVMGASFRRTEQILALTGCDRLTIAPNLLKELQEKVSPVVRKLIPPSQTFPRPAPMSEAEFRWEHNQDAMAVEKLSEGIRLFAVDQRKLEDLLAAKL [P0A867],5.487 ± 0.013 h,5.35 ± 0.25 h,5.76 ± 0.63 h,5.19 ± 0.4 h,5.95 ± 0.33 h,11.7 ± 0.016 h,5.19 ± 0.21 h,5.9 ± 0.16 h,12.8 ± 0.16 h,5.51 ± 0.43 h,9.85 ± 1.3 h,3.12 ± 0.12 h
